Laboratory results as given in the supplement of paper PMC9170038.

Tested on: MS2 coat protein
Experiment: apparent KD of MS2 coat protein; designed switch direction (-1 OFF switch, 1 ON switch): -1; higher = weaker reporter binding
Summary of the method: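 Designed RNA switches were transcribed on Illumina chips by stalled E. coli RNA polymerase and titrated with SNAP-549-labelled MS2 coat protein from 0.7 or 1.5 nM, doubling to 3 µM. Step length ran from 0.8–1.5 h at the lowest concentration to 10–20 min at the highest. The apparent KD is the median over clusters for each design, from curve-fitted normalised cluster fluorescence.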

[1] = Eterna round: R95, input ligand: microRNA oligo, concentration not stated
[2] = input ligand: microRNA oligo, concentration not stated

Sequence	apparent KD of MS2 coat protein (input ligand: FMN 200 uM)	apparent KD of MS2 coat protein (input ligand: none)	other results
AAACCUUGUGUCAGGAUAUGCAGAGGGAACGCCAGGCAGAAGGGACAUGAGGAUCACCCAUGUACAUUUUAAAC [BmEX4 B.19] (Eterna round: R97, puzzle: Brourd's mod of Exclusion 4)	487 nM	39.2 nM	
UAUAUGUGAGGAUAUCAGGUGUGCUAGCGUACUGGUACAUCUGAGAAGGCACAUGAGGAUCACCCAUGUAUCUU [JL-ex4-3.25 Brourd mod] (puzzle: Exclusion 4)			apparent KD of MS2 coat protein [1]: 25.5 nM
AACGGUGGGUAGGAUAUCCGGUUCUAGUUGCCAGGAGAAGGGCCCACAUGAGGAUCACCCAUGUGGGUGGGCUC [Maesri] (puzzle: Exclusion 6)			apparent KD of MS2 coat protein [1]: 43.6 nM
GGUGCUGGCGCGUCGGUGUUGGUGCAAUAAGCUUGUGAGACAUGAGGAUCACCCAUGUCCUCGUGGGCUCGUCUUGU [salish99_TOv2_r2_091] (puzzle: Sensor v3, turn-off variant 2)			apparent KD of MS2 coat protein (Eterna round: R95, input ligand: FMN 200 uM): 91.2 nM; apparent KD of MS2 coat protein [1]: 79.3 nM; apparent KD of MS2 coat protein (Eterna round: R95, input ligand: none): 93.7 nM
AACGGUGGGUAGGAUAUCCGGUUCUAGUUGCCAGGAGAAGGGCCCACAUGAGGAUCACCCAUGUGGGUGGGCUC [Maesri] (Eterna round: R96, puzzle: Exclusion 6)	44.6 nM	81.3 nM	apparent KD of MS2 coat protein [2]: 43.1 nM
CGAUGUGGAGUGAGGAUAUCGUGUUCGAAAGAACGUGAGAAGGCACAUGAGGAUCACCCAUGUGAUCCAUGUCG [Omei Ex4B A8] (Eterna round: R97, puzzle: Brourd's mod of Exclusion 4)	31.7 nM	26.4 nM	
GGUCAGAUGGUAGGAUAUCCAUAUCGAGUGACCCUUUCAUAACAUGAGGAUCACCCAUGUCGGUGGGAGAAGGGCCGUACGGCG [salish99_ExNG02_R04_010] (Eterna round: R96, puzzle: Exclusion NG 2)	43.9 nM	41.7 nM	apparent KD of MS2 coat protein [2]: 32.8 nM
UCGCAGUUAGGAUAUACAUGAGGAUCACCCAUGUGGCUCCGGACCGGCAACGAAUCACGUAGAAGGGACUGCAG [Eternabot (Original) Solution 24] (Eterna round: R97, puzzle: Exclusion 3)	20.4 nM	16.8 nM	
CAGGAUAGAGGAUAUACAUAGAUACAGAUUCAUGUGAUCCUACAUGAGGAUCACCCAUGUAGAAGGCUAACCUG [Fiskers Ex 2 - 24] (puzzle: Exclusion 2)			apparent KD of MS2 coat protein [1]: 306 nM
UCUGCUUUAGGAUAUACGAGAUCCUGCGAUGUACUCUUCGGACAUGAGGAUCACCCAUGUAGAAGGAAAGCAGG [Eternabot (L2) Solution 20] (Eterna round: R97, puzzle: Exclusion 2)	96.4 nM	12.2 nM	
AAGUAACAUGAGGAUCACCCAUGUUAGGAUAUCUCGGCCACAGGAUCCCUGUGAAGCCAGAGAAGGAGCGGGUG [Ceraso] (Eterna round: R97, puzzle: Exclusion 1)	169 nM	202 nM	
AAAAGGUCAGGAUAUCGGCGCGGUUGGGAGGCAGGUCCGCGCGAGAAGGGACAUGAGGAUCACCCAUGUUAAAA [Excls4-III] (puzzle: Exclusion 4)			apparent KD of MS2 coat protein [1]: 20.7 nM
CUGCUCCGUGUAGGAUAUGCAUAUUCCCAUUAUGCAGAAGGACAUGAGGAUCACCCAUGUAUGUUAUUAUCAUGUGUUACAUGC [Design 9] (Eterna round: R96, puzzle: Exclusion NG 1)	203 nM	33.2 nM	apparent KD of MS2 coat protein [2]: 24.9 nM
UAAAAGGGAGGAUAUACUUGAGGAUCACCCAAGUGAUCCAGACCCUGAACGGUCUAUAGUAGAAGGCCCAAUAA [Teinma] (Eterna round: R97, puzzle: Exclusion 3)	152 nM	58 nM	
CAGUACUGAGGAUAUACAUGAGGAUCACCCAUGUGUUUUCUACUAGGAAACUAGGUAUGUAGAAGGCAGUACUG [Omei Ex3 Mod of Eli 4.27 v3] (Eterna round: R97, puzzle: Exclusion 3)	194 nM	22.9 nM	
ACUAGCUUUUUGCAUUUUAGGUUUGUUGCUUCGUAUGUAACAUGAGGAUCACCCAUGUAUUACUGAUGUCGUCGUUU [JR_SV3TOV2_Sub090] (Eterna round: R96, puzzle: Sensor v3, turn-off variant 2)	18.5 nM	20.3 nM	apparent KD of MS2 coat protein [2]: 15.5 nM
AGUUCACAUGAGGAUCACCCAUGUGAGGAUAUGGUUUCGCUGGCCGUAGCCAGUGGAACCAGAAGGCGCAUGAU [Mat - Exclusion 1 - JL Mod - D14] (Eterna round: R97, puzzle: Exclusion 1)	38.6 nM	34.5 nM	
UCGCGCCAAGGAUAUACAUGAGGAUCACCCAUGUUGAAAGAAAAGUUGUCCGGUCCCAGUAGAAGGUGGUUCCC [Eternabot (L2) Solution 90] (Eterna round: R97, puzzle: Exclusion 3)	23.5 nM	58.4 nM	
